Data from paper PMC2553836, “Control of Jasmonate Biosynthesis and Senescence by miR319 Targets”.

Target: T1, TCP4 N-terminal fragment (pRSETC-TCP4-1, TCP4-N224) (Arabidopsis thaliana, UniProt Q8LPR5 1-224)
T1 sequence: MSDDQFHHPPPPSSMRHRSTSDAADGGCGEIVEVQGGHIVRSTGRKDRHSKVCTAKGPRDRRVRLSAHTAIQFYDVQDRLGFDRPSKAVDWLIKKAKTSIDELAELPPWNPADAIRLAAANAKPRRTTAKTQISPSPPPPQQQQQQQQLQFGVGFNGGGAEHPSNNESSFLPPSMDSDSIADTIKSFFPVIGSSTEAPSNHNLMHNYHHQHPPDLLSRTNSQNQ
Assay: EMSA; 20 mM HEPES-KOH pH 7.8, 100 mM KCl, 1 mM EDTA, 0.1% BSA, 10 ng herring sperm DNA, 10% glycerol, ~10 fmol probe, 5-100 ng protein in 10 ul, 30 min room temperature; 6% native gel, 0.5x TBE
Conditions: protein: recombinant; tags: His; chain copies: 2; label: 32P-dCTP (Klenow) as probe

B1: TCP4 consensus wild type (dsDNA)
DNA 1: AGATGGGGGACCACATAGATGT
DNA 2: ACATCTATGTGGTCCCCCATCT
- binding result: binds
